# Measured values published in patent US20110263825A1 (OSAKA UNIVERSITY, published 2011).
# Numbering of substitutions follows the chain as printed.
# T1: human CD20 antigen (human, UniProt P11836 1-297)
# T1 construct: whole, on cells; also called human CD20 molecule
# T1 sequence (looked up): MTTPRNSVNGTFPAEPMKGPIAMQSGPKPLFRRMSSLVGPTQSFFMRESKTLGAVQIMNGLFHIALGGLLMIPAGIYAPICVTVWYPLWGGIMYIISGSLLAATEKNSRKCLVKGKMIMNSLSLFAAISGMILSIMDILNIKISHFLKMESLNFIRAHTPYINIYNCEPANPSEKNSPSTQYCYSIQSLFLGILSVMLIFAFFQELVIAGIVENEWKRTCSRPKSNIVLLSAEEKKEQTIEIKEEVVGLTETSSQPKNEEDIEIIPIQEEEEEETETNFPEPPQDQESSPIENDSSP
# B1: humanized antibody 1782 clone ff (antibody, V domains shown)
# VH: QVQLVQSGAEVKKPGASVKVSCKASGYTFTSYWMHWVKQAPGQGLEWIGYITPSTGYTDYNKKFKDKATLTADRSSSTAYMELSSLRSEDTAVYYCARSGPYFDVWGAGTTVTVSS
# VL: DILLTQSPATLSVSPGERATLSCRASQNIGTSIHWYQQRPGQSPRLLIKYASESFSGIPSRFSGSGSGTDFTLTINSLQPEDIADYYCQQSNSWPFTFGSGTKLEIK
# notes: kg1 constructs (C kappa / C gamma1 vector); also called h1782ff; hz1782-ff14
# B2: humanized antibody 1782 clone ss (antibody, V domains shown)
# VH: B1 VH with K62Q, K65Q, D66G
# VL: B1 VL with V13L, I29V, I33L, R39K, S54R, S56T, N76S, Q79E, I83F
# notes: kg1 constructs; also called h1782ss; hz1782-ss21
# B3: humanized antibody 1782 clone sf (antibody, V domains shown)
# VH: B1 VH
# VL: B1 VL with V13L, I29V, I33L, R39K, S54R, S56T, N76S, Q79E, I83F
# notes: kg1 constructs; also called h1782sf; hz1782-sf23
# B4: humanized antibody 1782 clone fv (antibody, V domains shown)
# VH: B1 VH with V11L
# VL: B1 VL
# notes: kg1 constructs; also called h1782fv; hz1782-fv02
# Biological target: T1, human CD20 antigen
# Experiment: Scatchard analysis on Raji cells, FITC-labeled Protein A detection
row,Kd,Molecule
1,4.38 nM,B1
2,8.64 nM,B2
3,7.43 nM,B3
4,6.76 nM,B4

# Biological target: T1, human CD20 antigen
# Experiment: Scatchard analysis on Raji cells, FITC-labeled Protein A detection; repeated from Table 8
row,Kd,Molecule
1,4.38 nM,B1
2,8.64 nM,B2
3,7.43 nM,B3
4,6.76 nM,B4

# Biological target: T1, human CD20 antigen
# Experiment: Scatchard analysis on Raji cells, FITC anti-mouse IgG detection
row,Kd,Molecule
1,6.79 nM,mouse antibody 2B8
